The values that follow come from patent publication US20240148898A1.

Test [1] has as its target recombinant PD-L1 protein (PD-1 ligand), species not stated. Put plainly: ELISA.
For test [2] the target is unchanged. Put plainly: MST.

Chain of recombinant PD-L1 protein (PD-1 ligand), species not stated (Q9NZQ7 whole entry): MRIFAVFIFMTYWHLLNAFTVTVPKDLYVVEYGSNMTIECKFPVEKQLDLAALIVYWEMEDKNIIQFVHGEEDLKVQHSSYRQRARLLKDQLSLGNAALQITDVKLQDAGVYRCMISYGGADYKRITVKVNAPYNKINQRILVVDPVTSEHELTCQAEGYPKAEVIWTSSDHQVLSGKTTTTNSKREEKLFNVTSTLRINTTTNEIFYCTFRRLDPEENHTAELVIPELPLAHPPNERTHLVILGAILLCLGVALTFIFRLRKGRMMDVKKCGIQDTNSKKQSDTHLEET

B1: huHF-αPD-L1 HCDR3 (CD loop), Examples 1-6 (designed binder)
chain: MTTASTSQVRQNYHQDSEAAINRQINLELYASYVYLSMSYYFDRDDVALKNFAKYFLHQSHEEREHAEKLMKLQNQRGGRIFLQDIKKPDCDDWESGLNAMECALHLEKNVNQSLLELHKLATDKNDSGHGYSYGAFDYPHLCDFIETHYLNEQVKAIKELGDHVTNLRKMGAPESGLAEYLFDKHTLGDSDNES
What is called Kd is a measure of binding affinity in units of concentration. On to B1, for which the Kd in test [1] came out at 0.0712 µM.

B2: huHF-TPP1 (AB loop) (designed binder, not shown: small tags and cut ends)
chain: MTTASTSQVRQNYHQDSEAAINRQINLELYASYVYLSMSYYFDRDDSGQYASYHCWCWRDPGRSGGSKVALKNFAKYFLHQSHEEREHAEKLMKLQNQRGGRIFLQDIKKPDCDDWESGLNAMECALHLEKNVNQSLLELHKLATDKNDPHLCDFIETHYLNEQVKAIKELGDHVTNLRKMGAPESGLAEYLFDKHTLGDSDNES
B2: in test [2], the Kd was 0.0721 µM.

B3: huHF-TPP1 (CD loop) (designed binder, not shown: small tags and cut ends)
chain: MTTASTSQVRQNYHQDSEAAINRQINLELYASYVYLSMSYYFDRDDVALKNFAKYFLHQSHEEREHAEKLMKLQNQRGGRIFLQDIKKPDCDDWESGLNAMECALHLEKNVNQSLLELHKLATDKNDSGQYASYHCWCWRDPGRSGGSKPHLCDFIETHYLNEQVKAIKELGDHVTNLRKMGAPESGLAEYLFDKHTLGDSDNES
On to B3, for which, in test [2], the Kd was determined as 0.115 µM.
